# *1 amine or outer side, *2 acyl side, *3 side chain or, on linkers, in order; H or OH if unused. Where a SMILES comes first, the peptide text is derived from it. Where no end group is shown, it is not given here. [ ]: non-standard residue; d: D form. The star is where a group is joined. Succinyl(4-O-cholesteryl) = CC(C)CCC[C@@H](C)[C@H]1CC[C@H]2[C@@H]3CC=C4C[C@@H](OC(=O)CCC(=O)*)CC[C@]4(C)[C@H]3CC[C@]12C; MetSta(3S,4S) = CSCC[C@H](N[*:1])[C@@H](O)CC(=O)[*:2]; Sta = CC(C)C[C@H](N)[C@@H](O)CC(=O)O; PEG4 = NCCOCCOCCOCCOCCC(=O)O; PEG3 = NCCOCCOCCOCCC(=O)O; Ava = NCCCCC(=O)O; βAla = NCCC(=O)O
# B1: Tyr-Pro-Lys-Phe-Ile-Pro-Leu-Gly-DLys-Gly-Glu-Val-Asn-Leu*Ala-Ala-Glu-DPro-Lys(Chol'ester')-NH2 x 3TFA (peptide)
# peptide: YPKFIPLG[dK]GEVNLAAE[dP]K(Chol'ester')-NH2
# modifications: also: Leu14*Ala15 Tang hydroxyethylene dipeptide isostere, trifluoroacetate salt (x 3TFA)
# Target: T1, BACE1 (Homo sapiens, UniProt P56817)
# T1 construct: Human HEK293 cells which are stably transfected with a vector expressing a cDNA of the human APP wt gene (APP695); endogenous in cells; host or cells: HEK293 (human), stably transfected with human APP695 wt
# Assay: Cellular Aβ-lowering assay (Aβ40 ELISA of culture supernatant)
# Assay type: cell-based
# Conditions: not given
# Procedure: The compounds were investigated in accordance with the test given hereinafter.
# Cellular Aβ-Lowering Assay:
# Human HEK293 cells which are stably transfected with a vector expressing a cDNA of the human APP wt gene (APP695) were used to assess the potency of the compounds in a cellular assay. The cells were seeded in 96-well microtiter plates in cell culture medium (Iscove, plus 10% (v/v) fetal bovine serum, glutamine, penicillin/streptomycin) to about 80% confluence and the compounds were added at a 10× concentration in 1/10 volume of medium without FCS containing 8% DMSO (final concentration of DMSO was kept at 0.8% v/v). After 18-20 hrs incubation at 37° C. and 5% CO2 in a humidified incubator the culture supernatant was harvested for the determination of Aβ40 concentrations. 96 well ELISA plates (e.g., Nunc MaxiSorb) were coated with monoclonal antibody which specifically recognize the C-terminal end of Aβ40 (Brockhaus et al., NeuroReport 9; 1481-1486; 1998). After blocking of non-specific binding sites with e.g. 1% BSA and washing, the culture supernatants were added in suitable dilutions together with a horseradish peroxidase-coupled Aβ detection antibody (e.g., antibody 4G8, Senetek, Maryland Heights, Mo.) and incubated for 5 to 7 hrs. Subsequently the wells of the microtiter plate were washed extensively with Tris-buffered saline containing 0.05% Tween 20 and the assay was developed with tetramethylbenzidine/H2O2 in citric acid buffer. After stopping the reaction with one volume 1 N H2SO4 the reaction was measured in an ELISA reader at 450 nm wavelength. The concentrations of Aβ in the culture supernatants were calculated from a standard curve obtained with known amounts of pure Aβ peptide.
# T1 sequence (P56817 46-501): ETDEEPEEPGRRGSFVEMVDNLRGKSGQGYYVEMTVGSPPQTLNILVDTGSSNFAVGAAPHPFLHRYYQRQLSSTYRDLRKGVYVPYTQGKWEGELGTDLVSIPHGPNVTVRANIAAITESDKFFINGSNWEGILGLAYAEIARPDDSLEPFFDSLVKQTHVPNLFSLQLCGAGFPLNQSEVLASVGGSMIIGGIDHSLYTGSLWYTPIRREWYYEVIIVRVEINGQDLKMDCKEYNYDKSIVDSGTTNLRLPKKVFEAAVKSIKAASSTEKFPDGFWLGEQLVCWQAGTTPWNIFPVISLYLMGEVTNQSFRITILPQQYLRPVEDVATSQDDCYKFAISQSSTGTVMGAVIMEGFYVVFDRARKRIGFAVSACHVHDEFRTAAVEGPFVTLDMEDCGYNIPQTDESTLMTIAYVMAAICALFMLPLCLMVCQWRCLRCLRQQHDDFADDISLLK
row,Molecule,IC50 [nM]
1,"CC[C@H](C)[C@H](NC(=O)[C@H](Cc1ccccc1)NC(=O)[C@H](Cc1ccc(O)cc1)NC(=O)[C@@H]1CCCN1C(=O)[C@@H](N)Cc1ccc(O)cc1)C(=O)N1CCC[C@H]1C(=O)N[C@@H](CC(C)C)C(=O)NCC(=O)NCC(=O)NCC(=O)N[C@@H](CCC(=O)O)C(=O)N[C@H](C(=O)N[C@@H](CC(N)=O)C(=O)N[C@@H](CC(C)C)[C@@H](O)CC(=O)N[C@H](C(=O)N[C@@H](C)C(=O)N[C@@H](CCC(=O)O)C(=O)N1CCC[C@@H]1C(=O)N[C@@H](CCCCNC(=O)CCC(=O)O[C@H]1CC[C@@]2(C)C(=CC[C@H]3[C@@H]4CC[C@H]([C@H](C)CCCC(C)C)[C@@]4(C)CC[C@@H]32)C1)C(N)=O)C(C)C)C(C)C [Example 2, Tyr-Pro-Tyr-Phe-Ile-Pro-Leu-Gly-Gly-Gly-Glu-Val-Asn-Sta-Val-Ala-Glu-DPro-Lys(Chol)-NH2]",0.027

# Same assay, conditions: Aβ40 in supernatant of human HEK293 cells stably transfected with human APP wt (APP695); 18-20 hrs incubation; read-out: IC 50
row,Molecule,IC50 [nM]
1,"CC[C@H](C)[C@H](NC(=O)[C@H](Cc1ccccc1)NC(=O)[C@H](Cc1ccc(O)cc1)NC(=O)[C@@H]1CCCN1C(=O)[C@@H](N)Cc1ccc(O)cc1)C(=O)N1CCC[C@H]1C(=O)N[C@@H](CC(C)C)C(=O)NCCOCCOCCOCCC(=O)N[C@@H](CCC(=O)O)C(=O)N[C@H](C(=O)N[C@@H](CC(N)=O)C(=O)N[C@@H](CC(C)C)[C@@H](O)CC(=O)N[C@H](C(=O)N[C@@H](C)C(=O)N[C@@H](CCC(=O)O)C(=O)N1CCC[C@@H]1C(=O)N[C@@H](CCCCNC(=O)CCC(=O)O[C@H]1CC[C@@]2(C)C(=CC[C@H]3[C@@H]4CC[C@H]([C@H](C)CCCC(C)C)[C@@]4(C)CC[C@@H]32)C1)C(N)=O)C(C)C)C(C)C [Example 13, Tyr-Pro-Tyr-Phe-Ile-Pro-Leu-PEG(3)-Glu-Val-Asn-Sta-Val-Ala-Glu-DPro-Lys(Chol)-NH2] (H-YPYFIPL[PEG3]EVN[Sta]VAE[dP]K(Succinyl(4-O-cholesteryl))-NH2)",0.043
2,"CC[C@H](C)[C@H](NC(=O)[C@H](Cc1ccccc1)NC(=O)[C@H](Cc1ccc(O)cc1)NC(=O)[C@@H]1CCCN1C(=O)[C@@H](N)Cc1ccc(O)cc1)C(=O)N1CCC[C@H]1C(=O)N[C@@H](CC(C)C)C(=O)NCCOCCOCCOCCOCCC(=O)N[C@@H](CCC(=O)O)C(=O)N[C@H](C(=O)N[C@@H](CC(N)=O)C(=O)N[C@@H](CC(C)C)[C@@H](O)CC(=O)N[C@H](C(=O)N[C@@H](C)C(=O)N[C@@H](CCC(=O)O)C(=O)N1CCC[C@@H]1C(=O)N[C@@H](CCCCNC(=O)CCC(=O)O[C@H]1CC[C@@]2(C)C(=CC[C@H]3[C@@H]4CC[C@H]([C@H](C)CCCC(C)C)[C@@]4(C)CC[C@@H]32)C1)C(N)=O)C(C)C)C(C)C [Example 14, Tyr-Pro-Tyr-Phe-Ile-Pro-Leu-PEG(4)-Glu-Val-Asn-Sta-Val-Ala-Glu-DPro-Lys(Chol)-NH2] (H-YPYFIPL[PEG4]EVN[Sta]VAE[dP]K(Succinyl(4-O-cholesteryl))-NH2)",0.027

# Target: BACE1 enzyme (UniProt P56817 46-501, limits assumed)
# Assay: cell-based or functional assay
# Conditions: not given
# Chain of BACE1 enzyme (P56817 46-501 limits assumed): as the sequence (P56817 46-501) above
row,Molecule,"IC50, cellular Aβ-lowering assay (Aβ40 in supernatant of HEK293 cells expressing human APP695) [nM]"
1,YPYFIPLG[dA]GEVN[Sta]VAE[dP]K(Chol'ester')-NH2 (also: x TFA salt) [Tyr-Pro-Tyr-Phe-Ile-Pro-Leu-Gly-DAla-Gly-Glu-Val-Asn-Sta-Val-Ala-Glu-DPro-Lys(Chol'ester')-NH2 x TFA],0.02
2,YPYFIP[dK]G[dK]GEVN[Sta]VAE[dP]K(Chol'ester')-NH2 (also: x 3TFA salt),0.0059
3,YPYFIPL[Ava]EVN[Sta]VAE[dP]K(Chol)-NH2 (also: TFA salt) [Tyr-Pro-Tyr-Phe-Ile-Pro-Leu-NH(CH2)4CO-Glu-Val-Asn-Sta-Val-Ala-Glu-DPro-Lys(Chol)-NH2 x TFA],0.84
4,YPYFIPLSGGEVN[Sta]VAE[dP]K(Chol'ester')-NH2 (also: TFA salt) [Tyr-Pro-Tyr-Phe-Ile-Pro-Leu-Ser-Gly-Gly-Glu-Val-Asn-Sta-Val-Ala-Glu-DPro-Lys(Chol'ester')-NH2 x TFA],0.052
5,B1,0.039
6,YPYFI[dK]LG[dK]GEVN[Sta]VAE[dP]K(Chol'ester')-NH2 (also: x 3TFA salt),0.45
7,YPYFIPLGGGGGEVN[Sta]VAE[dP]K(Chol)-NH2 (also: TFA salt) [Tyr-Pro-Tyr-Phe-Ile-Pro-Leu-Gly-Gly-Gly-Gly-Gly-Glu-Val-Asn-Sta-Val-Ala-Glu-DPro-Lys(Chol)-NH2 x TFA],0.044
8,[dK]PYFIPLG[dK]GEVN[Sta]VAE[dP]K(Chol'ester')-NH2 (also: x 3TFA salt),0.013
9,YPYFIPKG[dK]GEVN[Sta]VAE[dP]K(Chol'ester')-NH2 (also: 3TFA salt),0.012
10,YPYFIPLGGGGEVN[Sta]VAE[dP]K(Chol)-NH2 (also: TFA salt) [Tyr-Pro-Tyr-Phe-Ile-Pro-Leu-Gly-Gly-Gly-Gly-Glu-Val-Asn-Sta-Val-Ala-Glu-DPro-Lys(Chol)-NH2 x TFA],0.042
11,YP[dK]FIPLG[dK]GEVN[Sta]VAE[dP]K(Chol'ester')-NH2 (also: x 3TFA salt),0.78
12,"YPKFIPLG[dK]GEVN[MetSta(3S,4S)]VAEPK(Chol'ester')-NH2 (also: x 3TFA salt)",0.061
13,Y[dK]YFIPLG[dK]GEVN[Sta]VAE[dP]K(Chol'ester')-NH2 (also: x 3TFA salt),3.4
14,YPYFIPL[βAla]EVN[Sta]VAE[dP]K(Chol)-NH2 (also: TFA salt) [Tyr-Pro-Tyr-Phe-Ile-Pro-Leu-NH(CH2)2CO-Glu-Val-Asn-Sta-Val-Ala-Glu-DPro-Lys(Chol)-NH2 x TFA],2.8
15,YPYFIPLGGGGEVN[Sta]DAE[dP]K(Chol)-NH2 (also: x TFA salt) [Tyr-Pro-Tyr-Phe-Ile-Pro-Leu-Gly-Gly-Gly-Gly-Glu-Val-Asn-Sta-Asp-Ala-Glu-DPro-Lys(Chol)-NH2 x TFA],3.3
16,YPYFIPL[dA]GGEVN[Sta]VAE[dP]K(Chol'ester')-NH2 (also: x TFA salt) [Tyr-Pro-Tyr-Phe-Ile-Pro-Leu-DAla-Gly-Gly-Glu-Val-Asn-Sta-Val-Ala-Glu-DPro-Lys(Chol'ester')-NH2 x TFA],0.055
17,YPY[dK]IPLG[dK]GEVN[Sta]VAE[dP]K(Chol'ester')-NH2 (also: x 3TFA salt),6.5
18,YPYF[dK]PLG[dK]GEVN[Sta]VAE[dP]K(Chol'ester')-NH2 (also: x 3TFA salt),7.6
